In patent US20250297004A1, “NECTIN-4 BINDING AGENTS” (INNATE PHARMA, priority 2022, published 2025):

T1: human Nectin-4 Mutant 1 (human, UniProt Q96NY8 32-510)
T1 construct: Expressed on transfected HEK293T cells; also called S58P/G59D/Q61A/N106D/P107A
T1 chain: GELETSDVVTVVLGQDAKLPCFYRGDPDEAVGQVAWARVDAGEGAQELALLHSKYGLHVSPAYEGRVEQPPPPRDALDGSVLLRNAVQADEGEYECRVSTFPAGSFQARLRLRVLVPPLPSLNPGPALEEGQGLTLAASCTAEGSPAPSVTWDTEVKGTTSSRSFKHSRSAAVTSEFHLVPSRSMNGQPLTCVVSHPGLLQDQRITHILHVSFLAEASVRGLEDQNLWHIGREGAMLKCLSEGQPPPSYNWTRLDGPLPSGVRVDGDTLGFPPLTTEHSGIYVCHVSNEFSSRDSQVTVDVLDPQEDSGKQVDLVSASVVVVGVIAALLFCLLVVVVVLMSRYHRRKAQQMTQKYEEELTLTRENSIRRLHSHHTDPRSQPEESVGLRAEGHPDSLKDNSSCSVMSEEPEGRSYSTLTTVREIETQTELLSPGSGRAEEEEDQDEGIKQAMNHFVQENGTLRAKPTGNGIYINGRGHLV

T2: human Nectin-4 expressed on cells (human, UniProt Q96NY8 32-510)
T2 construct: On SUM190, SUM185, MDA-MB-468 cells (endogenous) or transfected cells; 31-residue signal peptide left out; also called huN4; wild-type human Nectin-4
T2 sequence: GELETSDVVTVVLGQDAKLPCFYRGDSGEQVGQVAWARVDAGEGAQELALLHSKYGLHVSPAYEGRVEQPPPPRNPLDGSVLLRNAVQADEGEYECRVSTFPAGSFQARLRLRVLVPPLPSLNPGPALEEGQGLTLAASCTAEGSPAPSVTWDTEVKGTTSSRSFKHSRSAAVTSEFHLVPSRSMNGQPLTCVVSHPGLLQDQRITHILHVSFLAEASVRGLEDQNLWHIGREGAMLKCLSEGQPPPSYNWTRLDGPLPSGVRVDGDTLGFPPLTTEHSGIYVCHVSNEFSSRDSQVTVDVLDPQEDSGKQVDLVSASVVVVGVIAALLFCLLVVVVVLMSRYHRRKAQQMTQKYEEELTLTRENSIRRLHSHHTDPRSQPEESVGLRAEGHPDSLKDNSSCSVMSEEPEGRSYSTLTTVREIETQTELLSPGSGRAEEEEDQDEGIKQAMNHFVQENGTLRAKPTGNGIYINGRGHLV

T3: rat Nectin-4 protein expressed on CHO cells (rat, UniProt Q8R007 31-508 (mouse entry))
T3 construct: no cleavage site is stated; also called Rat Nectin-4 V5
T3 chain: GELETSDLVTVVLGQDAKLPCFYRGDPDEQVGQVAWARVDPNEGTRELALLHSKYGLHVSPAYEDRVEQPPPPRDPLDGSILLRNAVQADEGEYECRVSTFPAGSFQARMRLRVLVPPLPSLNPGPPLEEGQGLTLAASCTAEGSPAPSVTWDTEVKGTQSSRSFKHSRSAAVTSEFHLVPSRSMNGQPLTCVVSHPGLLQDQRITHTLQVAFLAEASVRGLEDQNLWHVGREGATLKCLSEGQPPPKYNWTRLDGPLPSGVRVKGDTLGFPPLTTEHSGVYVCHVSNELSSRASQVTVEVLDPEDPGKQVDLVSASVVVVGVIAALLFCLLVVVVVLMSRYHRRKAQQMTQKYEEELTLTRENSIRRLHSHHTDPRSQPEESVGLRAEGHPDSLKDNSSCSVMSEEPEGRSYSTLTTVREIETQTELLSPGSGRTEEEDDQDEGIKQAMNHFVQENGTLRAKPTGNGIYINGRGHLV

T4: human Nectin-4 Mutant 7 (human, UniProt Q96NY8 32-510)
T4 construct: Expressed on transfected HEK293T cells; also called S195A/K197T/S199A
T4 chain: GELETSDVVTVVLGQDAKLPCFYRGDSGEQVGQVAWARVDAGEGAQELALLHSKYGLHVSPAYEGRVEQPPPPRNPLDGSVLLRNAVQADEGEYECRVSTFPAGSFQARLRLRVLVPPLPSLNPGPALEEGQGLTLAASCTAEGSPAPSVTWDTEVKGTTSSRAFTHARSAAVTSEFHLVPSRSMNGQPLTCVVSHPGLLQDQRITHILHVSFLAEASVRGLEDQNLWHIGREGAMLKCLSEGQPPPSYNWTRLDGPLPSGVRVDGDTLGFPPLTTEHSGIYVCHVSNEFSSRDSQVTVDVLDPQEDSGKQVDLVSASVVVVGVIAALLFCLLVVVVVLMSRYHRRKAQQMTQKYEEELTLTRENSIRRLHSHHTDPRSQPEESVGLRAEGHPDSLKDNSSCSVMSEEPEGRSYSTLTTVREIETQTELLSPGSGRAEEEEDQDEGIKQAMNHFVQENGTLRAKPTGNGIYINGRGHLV


How the values were obtained:
human Nectin-4 Mutant 1 = molecular target: T1, human Nectin-4 Mutant 1; experiment: binding to HEK293T cells expressing Nectin-4 mutant
[1] = molecular target: T2, human Nectin-4 expressed on cells; experiment: flow cytometry on SUM190 cells, MedFI at saturation
Method: The humanized antibodies in Table 3 of Example 3 and in Table 6 of Example 5 were cloned, produced and purified, then tested for binding to Nectin-4 expressing cells by flow cytometry. Binding of humanized variants in human IgG1 format was determined on the SUM190 cell line expressing high levels of Nectin-4.

[2] = molecular target: T3, rat Nectin-4 protein expressed on CHO …; experiment: flow cytometry on CHO cells expressing rat Nectin-4, Median MFI (PE)
Method: Anti-Nectin-4 antibodies were tested by flow cytometry for binding to different CHO cell lines made to express respectively the mouse, cynomolgus and rat Nectin-4 protein (including an N-terminal V5 tag not shown in the sequences below).

[3] = molecular target: human Nectin-4 (protein used in the SPR affinity measurements) (human) (UniProt Q96NY8); experiment: SPR
human Nectin-4 Mutant 7 = molecular target: T4, human Nectin-4 Mutant 7; experiment: binding to HEK293T cells expressing Nectin-4 mutant

Binder | binding result (human Nectin-4 Mutant 1) | Max MedFi [1] | EC50 (read off the curve) [2] | Kd [3] | koff [3] | kon [3] | binding result (human Nectin-4 Mutant 7)
chimeric parental 5E7 antibody (antibody, V domains shown, Chimeric antibody, murine variable domains with human constant regions; also called ch5E7; CHG1-M-1N4-5E7) VH: QVQLQQPGAELVKPGASVKLSCKASGYIFTSYWMHWVKQRPGQGLEWIGEIDPSDSYTNYNQKFKGKATLTLDKSSSTTYMQLSSLTSEDSAVYYCVRGYGNYGDYWGQGTTLTVSS VL: DVVMTQAAFSNPVTLGTSASISCRSSKSLLHSNGITYLYWYLQKPGQSPQLLIYQMSNLASGVPDRFSSSGSGTDFTLRISRVEAEDVGVYYCAQNLELPWTFGGGTKLEIKR | binds | 25200 MedFI | ~0.1 µg/mL | 5.9 nM | 0.0027 s⁻¹ | 480000 M⁻¹ s⁻¹ | –
N41 (antibody, V domains shown) VH: QVQLKQSGPGLVQPSQSLSITCTVSGFSLTNYGVHWVRQSPGKGLEWLGVIWSGGSTDYNAAFISRLSISKDTSKSQVFFKMNSLQADDTAIYYCARELIHAMDNWGQGTSVTVSS VL: DIQMTQSPASLSVSVGETVTITCRASENIYSNLAWYQQKQGNSPQLLVFAATNLADGVPSRFSGSGSGTQYSLKINSLQSEDFGTYYCQHFWGTPTFGGGTKLEIK | – | – | – | – | – | – | binds
